{"source": "paper PMC4573853", "about": "(Genes & Development, 2015)", "key": {"[1]": {"biological_target": "T1, Taf14 YEATS domain (residues 1-132) (S. cerevisiae, UniProt P35189 1-132)", "T1 sequence (looked up)": "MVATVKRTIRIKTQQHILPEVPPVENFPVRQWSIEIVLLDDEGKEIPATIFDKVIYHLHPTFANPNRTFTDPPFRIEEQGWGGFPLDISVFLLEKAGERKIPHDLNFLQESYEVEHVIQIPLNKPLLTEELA", "assay": "NMR titration"}, "Taf14 (residues 1-138)": {"biological_target": "T2, Taf14 (residues 1-138) (S. cerevisiae, UniProt P35189 1-138)", "T2 sequence (looked up)": "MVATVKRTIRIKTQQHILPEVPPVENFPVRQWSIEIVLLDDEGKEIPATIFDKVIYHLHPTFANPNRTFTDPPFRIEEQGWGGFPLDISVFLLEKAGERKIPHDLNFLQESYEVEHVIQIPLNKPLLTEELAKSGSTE", "assay": "crystal structure"}}, "note": "No end group written: not given here."}
{"binder": "Ac-QTARK(Ac)STGG (peptide, UniProt P68431 6-14, looked up)", "note": "[H3K9ac(5-13) peptide]", "values": [{"measurement": "binding result", "setting": "[1]", "value": "binds"}, {"measurement": "binding result", "setting": "Taf14 (residues 1-138)", "value": "binds"}]}
